Experimental findings from patent US20160151487A1 are described below.

In the first assay the target is human neonatal Fc-receptor (FcRn), soluble extracellular domain with His-Avi Tag, co-expressed with beta-2-microglobulin (human) (UniProt P55899). Put plainly: FcRn affinity chromatography.
human neonatal Fc-receptor (FcRn), soluble extracellular domain with His-Avi Tag, co-expressed with beta-2-microglobulin (human), sequence (P55899 24-297 limits assumed, chain 1 of 2): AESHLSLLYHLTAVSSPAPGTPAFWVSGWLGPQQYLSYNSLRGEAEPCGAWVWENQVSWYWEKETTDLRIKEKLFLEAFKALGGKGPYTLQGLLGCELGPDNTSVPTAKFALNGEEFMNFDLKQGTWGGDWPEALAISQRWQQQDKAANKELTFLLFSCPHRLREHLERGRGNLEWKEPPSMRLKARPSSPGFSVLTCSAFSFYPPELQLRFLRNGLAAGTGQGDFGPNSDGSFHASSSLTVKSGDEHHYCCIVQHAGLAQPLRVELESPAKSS
human neonatal Fc-receptor (FcRn), soluble extracellular domain with His-Avi Tag, co-expressed with beta-2-microglobulin (human), sequence (P61769 21-119 limits assumed, chain 2 of 2, further chain): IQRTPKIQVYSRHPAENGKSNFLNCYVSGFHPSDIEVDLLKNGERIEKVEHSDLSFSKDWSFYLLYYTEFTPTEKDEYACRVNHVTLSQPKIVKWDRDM
For the substance “IgG1 antibody (not identified) with L234A/L235A/P329G and H435A in both Fc-region polypeptides”, the relative shift of retention time fell in the range of 0.3 to 0.4 min.

On to “IgG1 antibody (not identified) with L234A/L235A/P329G and I253A in both Fc-region polypeptides”, for which the relative shift of retention time lay within 0.3 to 0.4 min. “bispecific antibody (not identified) assembled using the knobs-into-holes technology, no FcRn affecting mutation” came in with a retention time on FcRn affinity column of 51.8 min. As to “bispecific antibody (not identified, knobs-into-holes), one chain with H310A”, the retention time on FcRn affinity column worked out at 48.4 min. The same measure, in the same setting: as for “bispecific antibody (not identified, knobs-into-holes), one chain with H310A/H433A/Y436A”, the figure is 46.7 min; as for “bispecific antibody (not identified, knobs-into-holes), one chain with H435A”, 48.8 min. “bispecific antibody (not identified, knobs-into-holes), one chain with I253A” showed a retention time on FcRn affinity column of 48.8 min.

Substance “bispecific antibody (not identified, knobs-into-holes), one chain with I253A/H310A/H435A” came in with a retention time on FcRn affinity column of 46.6 min. Regarding “bispecific antibody (not identified, knobs-into-holes), one chain with L251D/L314D/L432D”, the retention time on FcRn affinity column was 46.3 min. Same read-out and setting: in the case of “bispecific antibody (not identified, knobs-into-holes), one chain with M252Y/S254T/T256E” it was 56.2 min.

A further assay shares this target. Description: FcRn affinity chromatography, pH gradient.
With “IgG1 antibody (not identified) with L234A/L235A/P329G and Y436A in both Fc-region polypeptides”, the FcRn-affinity column retention time is 41.3 min.
